The values that follow are results of earlier work, collected in article PMC3763834.

Several values for one entry are separate records, joined by “and”; a condition that tells them apart may be missing. Equal entries are not always repeated.

The data set has as its target PKA catalytic subunit (UniProt P17612).

As usually defined, the Kd is the equilibrium constant for the complex coming apart. PKA RII subunit (from UniProt P13861): the Kd is 1 nM and 0.1 nM.
